Data reported in the DeepSol protein solubility set.

Experiment: soluble on expression in E. coli; label from the status in PepcDB or PDB records

MGSDKIHHHHHHAEVAVPDTTPKDTASAVKITYEDPRDPFEGFNRVMWDFNYLYLDRYLYRPVAHGYNDYIPLPAKMGVNNFLQNLEEPSSVVNNLLQGKWGWAANAGGRFTVNTTIGLLGVIDVADMMGMTRKQDEFNEVLGYYGVPNGPYFMAPFAGPYIVRELASDWVDGLYFPLSELTMWQSVLKWGLKSLHARASAIDQERLVDNALDPYAFVKDAYIQHMDYKVYDGNVPQKQEDDELLDQYMQELE
soluble on expression in E. coli: not soluble

MSTSSHTVLLIQTSPRLDSRTWGDYESVTDALDALCKMFEDFLSKKSAAPVTYDVSQVYEFLDKLSDVSMMIFNRETGQYIGRTRAWIKQQVYEMMRGRCQHPEGGEKVIVGY
soluble on expression in E. coli: not soluble

MSLCMEAVMNIGIYIYDEAEVLDFSGPFEVFSTAKRLGAGSWNVFLVSETLEPVKARGGFTVLPDYSFQNYPQIDLLIVVGGVHRNEMNKSNVLHWVASVDKHAKHIASVCTGAFILANAGLLKGLAVTTHWEDIPELKQRFPDLVVVEDKRWITASKYTTSGGISAGIDMSLFLVSKFHSQSHAELVAHQMEYNWQKCTEGGSHHHHHH
soluble on expression in E. coli: soluble

MAHHHHHHMVAPSGRTGRRTTRRRTLHTGAGTTVTQRSARLPSRLRRVSTLKTSRAPSCLSTSARLRLFRRRRTCWRCWSERASPYQSSATTPSSPPETAVCAWCRTALRTSSSRAPPWRYLACPSSPTAACAMPARAMWSLSSTTRTTARFASRPPTAICRTATTAPTSRATARTRKPSRTSTLTPRHASCTAASTARAASASTSTRRTSTSARLAAAGARFPPFMNWRRRTTICPFLSYAPSGSCTWAMQTRTTTCASSRLRGQRR
soluble on expression in E. coli: soluble

AIGEFMVSLPRMVYPQPKVLTPCRKDVLVVTPWLAPIVWEGTFNIDILNEQFRLQNTTIGLTVFAIKKYVAFLKLFLETAEKHFMVGHRVHYYVFTDQPAAVPRVTLGTGRQLSVLEVRAYKRWQDVSMRRMEMISDFCERRFLSEVDYLVCVDVDMEFRDHVGVEILTPLFGTLHPGFYGSSREAFTYERRPQSQAYIPKDEGDFYYLGGFFGGSVQEVQRLTRACHQAMMVDQANGIEAVWHDESHLNKYLLRHKPTKVLSPEYLWDQQLLGWPAVLRKLRFTAVPKNHQAVRNP
soluble on expression in E. coli: soluble

MHHHHHHSSGVDLGTENLYFQSMPFPEGKVLDDMEGNQWVLGKKIGSGGFGLIYLAFPTNKPEKDARHVVKVEYQENGPLFSELKFYQRVAKKDCIKKWIERKQLDYLGIPLFYGSGLTEFKGRSYRFMVMERLGIDLQKISGQNGTFKKSTVLQLGIRMLDVLEYIHENEYVHGDIKAANLLLGYKNPDQVYLADYGLSYRYCPNGNHKQYQENPRKGHNGTIEFTSLDAHKGVALSRRSDVEILGYCMLRWLCGKLPWEQNLKDPVAVQTAKTNLLDELPQSVLKWAPSGSSCCEIAQFLVCAHSLAYDEKPNYQALKKILNPHGIPLGPLDFSTKGQSINVH
soluble on expression in E. coli: soluble

MGSDKIHHHHHHMIASKSKQLVYNGRFTTQKTTGVQRVARELIAALIKFQPQDPVTVLVPPRPGVAVSGAKTVEVGFYKGVVWEQLILPLFARRGRIVNLGNSASIFLGNQIIYMHDAAVFDTPAHFSRPFRVWYRIMFWILARTSVCVLTNSRFSRDRLAHHCGVSAEKIRVVPLGADHLDALEPDTSVLDKHALTPDRFVLAVSSMNPTKNFGRLIAAFRQIGDPSVDLVIVGMQNTTVFGKHDPVGAPEPNIKYVGYISDEQLKALYQNAACFLYPSIYEGFGIPPLEAMRYGCPALVGKSAALPEVCADAALYCDPYSQDDIARKLRSLLDSPELRAELKRKGIAHAEQYRWSRSAEMMKAIFETL
soluble on expression in E. coli: not soluble

MATLLRSLALFKRNKDKPPITSGSGGAIRGIKHIIIVPIPGDSSITTRSRLLDRLVRLIGNPDVSGPKLTGALIGILSLFVESPGQLIQRITDDPDVSIRLLEVVQSDQSQSGLTFASRGTNMEDEADQYFSHDDPISSDQSRFGWFENKEISDIEVQDPEGFNMILGTILAQIWVLLAKAVTAPDTAADSELRRWIKYTQQRRVVGEFRLERKWLDVVRNRIAEDLSLRRFMVALILDIKRTPGNKPRIAEMICDIDTYIVEAGLASFILTIKFGIETMYPALGLHEFAGELSTLESLMNLYQQMGETAPYMVILENSIQNKFSAGSYPLLWSYAMGVGVELENSMGGLNFGRSYFDPAYFRLGQEMVRRSAGKVSSTLASELGITAEDARLVSEIAMHTTEDKISRAVGPRQAQVSFLHGDQSENELPRLGGKEDRRVKQSRGEARESYRETGPSRASDARAAHLPTGTPLDIDTASESSQDPQDSRRSADALLRLQAMAGISEEQGSDTDTPIVYNDRNLLD
soluble on expression in E. coli: not soluble

MSHVNQAVSCIFCYFQEMSFVCGISGELTEDPVVSQVSGHIFDRRLIVKFIAENGTDPISHGELSEDQLVSLKSGGTGSAPRNVSGTSIPSLLKMLQDEWDTVMLNSFSLRQQLQIARQELSHSLYQHDAACRVISRLSKELTAAREALSTLKPHTSAKVDDDVSIDESEDQQGLSEAILAKLEEKSKSLTAERKQRGKNLPEGLAKTEELAELKQTASHTGIHSTGTPGITALDIKGNLSLTGGIDKTVVLYDYEKEQVMQTFKGHNKKINAVVLHPDNITAISASADSHIRVWSATDSSSKAIIDVHQAPVTDISLNASGDYILSASDDSYWAFSDIRSGKSLCKVSVEPGSQIAVHSIEFHPDGLIFGTGAADAVVKIWDLKNQTVAAAFPGHTAAVRSIAFSENGYYLATGSEDGEVKLWDLRKLKNLKTFANEEKQPINSLSFDMTGTFLGIGGQKVQVLHVKSWSEVVSLSDHSGPVTGVRFGENARSLVTCSLDKSLRVFSF
soluble on expression in E. coli: not soluble

MAAFSQLYDLHINILFNYGLKLTIDKELLKDCIHDIFVKLYTKKDELGTIDNLKSYLFISLKNKLCDELRKRMYMSDTAIEDVNAVAPTDVEDDYMEEEQRKNEFSLVKRLLDQLSPRQREALTLYYIEEKKYEDICEIMNMNYQSVRNLMHRGLTKLRSLAS
soluble on expression in E. coli: not soluble

MTNNDPYHTLINEICALSLISTPERFYESANFKISEVDFTLQYQDRDEGRAVLIYGDMGALPTRNRDAALLALMDINFHMFSGVHSPVFSWNAQTSRVLLMGSVSLERASAEGVLLLMKSFADLANEWREHGFIGQVKTAGAPAEQPVATAAKRESLSASGKFQ
soluble on expression in E. coli: not soluble

MLGKSLVKEKITDSVVSSPNGLVLLAPEMTLPVDVEENKPEESKDSAHERNCATAGVESPSNPVDSCLKLTYVEEGDNDRESNLKLLDGSVEEKEDTKKLTDIDINSLPDEVDDSHADQSDTKEQEIDDKEDKTPLSDDGCEGKAEGTKESNQQPDSNKVDNSQPLGNGGTGEELGNRTLALKREVTPTLRASPRLIQRSWRTSRVNQKFTGTTNAVLLDSPHRCV
soluble on expression in E. coli: soluble

MGSDKIHHHHHHMEWLEQLLGKEWSLVPAGGVTGDAYIAQNGQQKLFLKRNTSPFLAVLSAEGIVPKLLWTRRVTNGDVISAQKWLPGQKLEPEDMKLERVAKLLKKIHSSKALVQMIQRLGKQPLHAQELLQQLQLVLRGDIRDEETIQQGLQYLMDSLKDIEYNEFVVCHCDVNHNNWLLSDEDELFLIDWDGAVIADPALDLGMLLYWYIPRQEWSEWLGYYDIEMDESLLKRMRWYVIAQTILSIQWHTTKKQQAEAEYWHQYLQQLLASE
soluble on expression in E. coli: not soluble

MNILLCCSAGMSTSLLVTKMEAAAKARGLEGKIWAVSGDAVKTNIDQADVLLLGPQVRYMLSSMKTLADERNVGIDVINPMHYGMMNGEAVLDHALTLKK
soluble on expression in E. coli: not soluble

GPMNQLDQLGTRINLICNVFDKWIGQQDLNYNLFAVLYTLATEGSRTQKHIGEKWSLPKQTVSGVCKTLAGQGLIEWQEGEQDRRKRLLSLTETGKAYAAPLTESAQEFSDKVFATFGDKRTTRLFADLDALAEVMEKTISENKK
soluble on expression in E. coli: soluble

SEAVRPDSCESGPAAPRAEERPAPEARVHFRVTRFIMEAGVKLGMQSIPIATACTIYHKFFCEINLDAYDLYLVAMSSIYLAGKVEEQHLRTRDIINVSHRYFNPGSEPLELDSRFWELRDSIVQCELLMLRVLRFQVSFQHPHKYLLHYLISLKNWLNRYSWQRTPISVTAWALLRDSYHGGLCLRFQAQHLAVAVLYLALQVYGVEVPAEGEAEKPWWQVFSDDLTKPIIDNIVSDLIQIYTMDTEIP
soluble on expression in E. coli: soluble

MRSSKSPFKRKSHSRETSHDENTSFFHKRTISGSSAHHSRNVSQGAVPSSAPPVSGGNYSHKRNVSRASNSSQTSNFLAEQYERDRKAIINCCFSRPDHKTGEPPNNYITHVRIIEDSKFPSSRPPPDSKLENKKKRLLILSAKPNNAKLIQIHKARENSDGSFQIGRTWQLTELVRVEKDLEISEGFILTMSKKYYWETNSAKERTVFIKSLITLYIQTFEGHVPELVNWDLSLFYLDERSYQRAVITNRPGSVSPIKSPTSNFTTNTTQSVGSVPFSAPTERTRRSETESVNPVSTPASVEYHAGMKSLNKAPYSSNS
soluble on expression in E. coli: soluble

MVRRLLALSRPLYWLYEKRLLREVKRGPMPRHLGLILDGNRRYARALGLSPTKGHEFGVQKAYEVLEWCLEMGIKTVTVWVFSTDNFKRPPEEVETLMNLFLREAERMAEDHRILEHQVRVRFIGRREGFSPEVVRAIERLERRTEGHRGMFLNIAMGYGGREEIVDAVKRLLLEAEARGLSPKEVAEGLTPEDIARHLYTAGLPDPDFIIRTSGEIRLSGFLLWQSAYSEFYFADVLWPEFRKIDFLRALRSYQARERRFGR
soluble on expression in E. coli: soluble

MTYDYVIVGGGIVGVSTGWQLKRRYPEKSVLLIEKEAGFSRHQTGHNSGVIHAGVYYAPGSLKADFCKRGVERTLAFCAQHNIPVENCGKLLVATNEQELERMHALYDRCLQNQIDVEKLDAAQLKLAEPNIRGLGAILVKATSIVNYRLVTEKMAEAFMQLGGDVKIGTEVVGLEETPSSITLTCQQKNQRVSYQAKFLVTCSGLMADRLTKMLGLPTDFQIIPYRGEYYRLAPKHNQVVRHLIYPIPDPELPFLGVHLTRMIDGCVTVGPNAVQGFKREGYGKWNVSLRDVWEMVCFPGFWKVSAKHFKTGMVEMKNSWWKAGYLQLVRKYCPSIELTDLEPYPAGIRAQAVLSDGTLVHDFLFAESPRSLHVCNAPSPAATSAMPIGEYLCDKIAEKSLALEHHHHHH
soluble on expression in E. coli: soluble

MGSDKIHHHHHHMEILSVGEKIKRARIYKRLTLKDICDDKVSVSKMSCIENGKITPDNEILEFVAKKLNVALDYLKYDVKDQFQSNLDNLKDIEEGKKDEYLRYNVYYAEQYEYYDIAFQFMHELFNLYVNKNKLDIVQSLTSEYYDICRKVTDCDNRSMYNLDIGKYLLASREYRQAINYYSRVRKELKTGFSENKKRIKMLIESYYYETLSYILCEDYDNAYELEKELLELIEYVDTDNQHAKIYSVMMFLCLKKNIDQFDYYKEKIENYCDINSEIKARVMYVCALKMINDEKVEEAKGYIAKALEQFQGKIENKYIPFIVELVNEVSRRNNLERYRGICDLILDYSIGIENSVLMERCYYLKSRIFKASNDLESYEMYMNLALDLLIKSGNEDDIYTRYMEMGNMYSTLGNVKDALRYFNLAINMSNKM
soluble on expression in E. coli: not soluble

MGSDKIHHHHHHMKPALKSTPALRITLVCNTAWAIYTYRQGLIRMLVGRGVDVTVLAPRDRTFELLVAMGCRCIELPVASKGTSPRDDLRTLYALYRQYRSIRPHVVFHYTIKPNIYGSIAARLAGVQSVAVTTGLGYVFIQQSRAAQVAKKLYRFAFRFPREIWFLNRDDQAAFVEQNLLVHPERARLLHGEGVDLEQFAFTPLPERADYRFVLIGRLLWDKGVGEYVEAARRLRERYPHARFQLLGPVGVDNPSAITREEVAAWEREGIIEYLGEAHDVRPFIAEADCVVLPSYREGVPRTLMEASAMGRPIVTTDVPGCREVVADGVNGLLCEARNAASLAATLARMLDMSGAERRALAERGRKKVAEEFDERVVVEMYKDLVQKMTGVLL
soluble on expression in E. coli: not soluble

MNLFASEIFVFTPKGEIKTMPQNCTALDFAFSIHTFLGSHCIGAKVNHKLVPLSHKLQSGDQVEILTSKSQHVQPLEHHHHHH
soluble on expression in E. coli: not soluble
